# Experimental data from the DeepSol protein solubility set.
# Test: soluble on expression in E. coli; label from the status in PepcDB or PDB records
row,Sequence,soluble on expression in E. coli
1,MSLPLVTLNSVRFAGMATCVPKRVVSNLTDCKPQIRPERERLVRNIGIELRRLTQEWQCFSDLAFDAASKLIESLEWKLEEIDALIVVTQSPDYLAPATAIILQDRLGLPHTTLAFDVNLGCSGYPFGLHLLGSLISAGGIKKGLVLVGDSGAQLNDPIFSDAGTATAMEFCADAPPMYFDLNSDGSGHKAIILPVGGHREPVGIQHLVPFRENENDHWHRAIDLQLDGTAVLSFSTQRVPPAVEKLLEYANASKDEVDYFIFHQANRMINETIRKKLALPVEKVPSTLRDFGNTSGASLPVTMTARINKQLEEGSKRLVLSGFGIGLSWGTCLVDIQGAKFPDLIESEGHHHHHH,soluble
2,LTPILGYGRVRAKVSADIDFTSYEQTQELFNPELSALRSEQTMQESRNASNEASGVPGTLSNTPQPNSSLGQKNNPQQNATPNNLPQQTSSDQMQAKDVRMQTTKNFELDKTISHTKNQPGTIKRLSVAVLVDNRPVMNDKTKKLEKKPLTKEEIEQIKLLVSDAIGLNVKRGDSLNVINSSF,not soluble
3,MICTPKVGLNNQLTKVQFFMTKYNFLFKQQVIEFYLQNDKNSSLTRRHFQLAETTLERWINQFNHSGINGLALLGKKRNYSPEFKLNVIQAVKNGKFSAEAACLHFGIANSGVVSQWLQAFEKQGINGLIPKPKGRPTMKLQYPKMPPKPKTREEELELENLRLRAENAILKKLQELNQQKMQKKPLSLEHHHHHH,not soluble
4,MNPNFTTEHTWQGRHDPEDGQAGRRVHHIACPIQVGELANQEPGVALIGFECDAGVERNKGRTGAKHAPSLIKQALANLAWHHPIPIYDLGNIRCEGDELEQAQQECAQVIQQALPHARAIVLGGGHEIAWATFQGLAQHFLATGVKQPRIGIINFDAHFDLRTFESELAPVRPSSGTPFNQIHHFCQQQGWDFHYACLGVSRASNTPALFERADKLGVWYVEDKAFSPLSLKDHLTQLQHFIDDCDYLYLTIDLDVFPAASAPGVSAPAARGVSLEALAPYFDRILHYKNKLMIADIAEYNPSFDIDQHTARLAARLCWDIANAMAEQVQSIRHP,soluble
5,MANSAGSMADNSKTRVVVGMSGGVDSSVTALLLKEQGYDVIGIFMKNWDDTDENGVCTATEDYKDVAKVADQIGIPYYSVNFEKEYWDRVFEYFLAEYRLGRTPNPDVMCNKEIKFKAFLDYAMQLGADYVATGHYAQVETDENGVVHMLRGIDNNKDQTYFLSQLSQAQLAKTMFPLGGMEKSEVRAIAERAGLATAKKKDSTGVCFIGEKNFKEFLSNYLPAKKGNMVTEDGEIKGQHDGLMYYTIGQRQGLGIGGGGKTQEPWFVIGKDLTTNTLYVGQGFHHEKLYATHLEASEVHFTVDTPMPKEFDCTAKFRYRQADIPVHVSLSEDGTKATVTFKEPARAVTPGQAVVFYDGMECLGGGLIDRAYQDEKELQYVLEHHHHHH,not soluble
6,MSLADDHIYVTSSGGSFLENVRKHMAEPFEKQSGVKVTLVPGTNPAHALKILSSRGTPPYDVAAFGGNDMYRLIRAKKLAQVDEKSVPSLADVPEKFKADWEGCGSLYDYSSVGIAYRPDKIQGGVKSWKEFVERTVAGEFGKQVFFNNLSSNVRGAEVLSMFGKIYGSGYGDIEASIATLERMKPHIFKFFTAFNDPVVLLTSGEGAIGPGWDGRTFIAEDSTKGMVKWVDPTEGAVSSGPVMAVVKGGKEDLAKAFMNYALGEEAQKAFCEAMYYGAVNRKVQYSEKLKHRLPSIDSVQLVDTALLIKNMSALLDLWNKRIASEGHHHHHH,soluble
7,MGSDKIHHHHHHVLVRRLAQAPVPIAGVAVLGTITPEDQQAAEDARLPLLQLPEGVDLREVEREITRLITDYEAQFERRAARLYDLLTQCSLQGGGISGLLDILHERTGQSVAFYASNGVLRAQRGRGQSRLALQALRPNGRGETTLLNQQIWVEPIGNSGLPIGYVAIAGTLLDPWDRTAAQRGALALALELAKEQAVQAAEERLRGDFIAGILAGAPGDLAAVIQRGQELGYTLHLPHTAMLVHIDDASTATLARAATNIQNELKRLGVNAPISRRESNVLCMLPTTSVTRLRELTEQLRERLRLDHPNVVIAIGTPATHLTEWRRSVEEAEQSLSLGRQIFGNDRVLAFGDLGVYRLLIRLRETPELWSFYRETLSSLAEYDKRQHADLIKTLEAYFNHLGNLRATSEALHVHRNTLLYRLERIKEISGMDLDNAEEHFALWLAVRAHRILATLEE,not soluble
8,MTKKVVVHQIVGHRFLGVNEQGDKVMIDGDQPSTGPRPMELLLMALGACTAYDVVDIMRKKKQPLARYRVEVEGERAETHPRRYTRITVTHIASGPGVTLEALERAVHLSHTKYCSVSATLNAEITTRVVLEPWEGEEGEG,soluble
9,ASQPLIQDPVLIEYINHLGNSLVKNAQGVNYAFEFFLINNNELNAFAFFGGHVGIHSGLITTADTESELASVIAHEISHVTQRHLARRLESQSQTQGLTMAAMLSSVLITLVNPTVGIAALSASMAVTQQASINYTRGNEKEADRVGIALLASSNYDPQGAASFFSKMSTKYRYASKPPAMLLTHPLPESRIADARQRALNYPARPLPPSLGFELTKARLKSRYQGEAKSNISFFKLQLEKKRYAIKAAAQYGLALSYFENKQTSEALQLLEMLEKNDKDNLFYVDALTDVYIANNQANKAIKMLERLNLFMPNNQVVSLNYANALLSVKEYDLAAQILQDFLLVNPGNFIAYDILTTLYRTQEKTGLMHMSKAEVYALLGAYPKAVDELQTSYAFLDEQPLMQK,not soluble
10,MRFLTAGESHGPELLAIIEGLPAGLPLSEEDINPWLEKRQKGYGRGRRMVIERDRVEFRAGVRGGRTTGAPVALAIKNADFKNWAEIMDPAPGNWPRKRALTAARPGHADLAGGMKYGHKDLRDVLERASARETAMRVAVGAVALKLLSLLGVEGVGYVPGMAGVWAKVPFSWDLVPRIEESPLRMTDPEAEAEAIRRIDQAKAEGDTLGGIIEARFRGLVPGLGSHVHWDRKLDGRLAQMALSIPAVKGVEIGPAFENAMKRGSEVHDAIYWSPERGFYRKTNRAGGLEGGMTTGEELVVRAALKPIATLMKPLPTVDVVTHEPKDAARERSDTTAVPAASVILCALSAIVLAQAYLEKFGGDTMEEIQERVERYRERVRAY,soluble
11,MGSSHHHHHHMAYTNTPHNWGIPRPKNETVPDAGKLYTDLLQKNGGFYLGDTKKKDIYLTFDNGYENGYTGKILDVLKEKKVPATFFVTGHYIKTQKDLLLRMKDEGHIIGNHSWSHPDFTAVNDEKLREELTSVTEEIKKVTGQKEVKYVRPPRGVFSERTLALTKEMGYYNVFWSLAFLDWKVDEQRGWQYAHNNVMTMIHPGSILLLHAISKDNAEALAKIIDDLREKGYHFKSLDDLVKSNQP,soluble
12,GSKGNIRVIARVRPVTKEDGEGPEATNAVTFDADDDSIIHLLHKGKPVSFELDKVFSPQASQQDVFQEVQALVTSCIDGFNVCIFAYGQTGAGKTYTMEGTAENPGINQRALQLLFSEVQEKASDWEYTITVSAAEIYNEVLRDLLGKEPQEKLEIRLCPDGSGQLYVPGLTEFQVQSVDDINKVFEFGHTNRTTEFTNLNEHSSRSHALLIVTVRGVDCSTGLRTTGKLNLVDLAGSERVGKSGAEGSRLREAQHINKSLSALGDVIAALRSRQGHVPFRNSKLTYLLQDSLSGDSKTLMVVQVSPVEKNTSETLYSLKFAERVRSVEL,soluble
13,MSLNNLNTNIDFIKKSPKTELHLHIEGSLEPELMFKLSKRNKIEIPFKSVDEIRSAYNFTNLDSFLKIYYEGSNVLIREEDFFDLTWEYVLRCKQDNIVHTEIFFDPQSHLPRGISFETVINGIDKALKKAEKDFGISSKIIMCFLRHLDEESCFDVLKKAFDHKDKIIGVGLDSSEKGNPPSKFKRLFEQAVKEGFITVAHAGEEGPPEYIWDSLDILKVKRIDHGVQCLNDEKLVNKLVKEQIPLTVCPLSNVKLCVFDKLENHNLKKMLDKGLRVMVNSDDPAYFGGYLNKNLIETSRALNLNLVDIKKLIENSFKSSFLEKEKKENWLKKINEGHHHHHH,soluble
14,NFIYAHLNRIIRRDDLNMIYIAGPGHGGPALVANTYLEGTYSEHYPDISQDIQGMKHLFRQFSFPGGIGSHATPEIPGSIHEGGELGYALSHAFGAVFDNPDLIAACVVGDGEAETGPLATAWHSNKFLNPVHDGAVLPILHLNGYKIANPTILARISREELDQLFQGYGYQPYIVEGEDPLTMHQLMA,not soluble
